Publication PMC5863359, “A novel acetyl xylan esterase enabling complete deacetylation of substituted xylans” (Biotechnology for Biofuels, 2018)

What was measured:
[1] = substrate: CC(=O)Oc1ccc([N+](=O)[O-])cc1; test: spectrophotometric hydrolysis assay (A410), Michaelis-Menten fit; type: biochemical, Flavobacterium johnsoniae; conditions: 50 mM HEPES pH 8.0, 30 °C
Source text: spectrophotometric hydrolysis assay (A410), Michaelis-Menten fit on FjoAcXE

[2] = substrate: CC(=O)Oc1ccc2c(C)cc(=O)oc2c1; test: spectrophotometric hydrolysis assay (A354), Michaelis-Menten fit; type: biochemical, Flavobacterium johnsoniae; conditions: 50 mM HEPES pH 8.0, 10% DMSO, 30 °C
Source text: spectrophotometric hydrolysis assay (A354), Michaelis-Menten fit on FjoAcXE

B1: FjoAcXE (Flavobacterium johnsoniae UW101) (protein)
chain: GCTSNKALIKTGDKKEDQNWTGTWATAQMLVEPKNMPPEPGLAQNTLRQIIKVSLGGKQIRLRFSNLFSDQPAVLKSVSVANVTEAPAVDIKTQKILSFKGSPQVTLGADEVVYSDAFDFELQPGQLLAITIHYGEISSNVSGHPGSRTTSYILQGDHINNESFAGAVKTDHWYSIMGVDISSVKNESNVVCLGNSIIDGRGSGTNKQNRWTDILASRLNANKNTAHIGVLNLGIGGNCVVRGGLGPTALNRFDRDVLSQSGTKWLIILEGINDIGGIRKAEDASVTAKEIIEGYKVMIDKAHAKGIKVFGGTILPFEKSFYDAPFKQDARDIVNEWIRTKGNFDAVIDFDKAMASDVGSKTILPDMHDNDFLHPNEKGYQRMGETVDLDLFQ
notes: predicted signal peptide (residues 1-21) removed; N-terminal His6-tag (p15TV-L); codon-optimized synthetic gene, expressed in E. coli BL21(DE3) codon plus
- Km [1]: 900 ± 100 µM
- kcat [1]: 121 ± 3 s⁻¹
- kcat/Km [1]: 128000 M⁻¹ s⁻¹
- Km [2]: 800 ± 100 µM
- kcat [2]: 95.1 ± 4.4 s⁻¹
- kcat/Km [2]: 115000 M⁻¹ s⁻¹
